According to PMC4159567, “Aggregation-prone c9FTD/ALS poly(GA) RAN-translated proteins cause neurotoxicity by inducing ER stress” (Acta Neuropathologica, 2014):

Molecular target: the molecule itself
Test: gel and Western blot of high molecular weight species; purified recombinant GST-(GA)50 beside GST alone (Online Resource 1a); samples heated in Laemmli's buffer

B1: recombinant GST-(GA)50 protein (other, human)
chain: GAGAGAGAGAGAGAGAGAGAGAGAGAGAGAGAGAGAGAGAGAGAGAGAGAGAGAGAGAGAGAGAGAGAGAGAGAGAGAGAGAGAGAGAGAGAGAGAGAGA
notes: poly(GA) c9RAN dipeptide repeat, 50 repeats; (GA)50 cDNA in pGEX-6P-1 (BamHI/XhoI); RAN-translated from the G4C2 repeat of C9ORF72, not part of the C9ORF72 protein; also called poly(GA); source: E. coli Rosetta(DE3)pLysS, purified (Glutathione Sepharose 4B, eluted with glutathione, dialysed); not shown: GST, N-terminal, kept
binding result: binds
